Measured values as given in US20120121633A1, “HIV CD4 BINDING SITE BASED COVALENT IMMUNOGEN COMPOSITIONS” (priority 2010, published 2012).

What was measured:
[1] = biological target: gp120 on intact HIV virions (strain MN) (HIV strain MN) (UniProt P05877); assay: MAb (7.5 µg/ml) with intact HIV virions, complexes captured on Protein G, p24 ELISA
[2] = biological target: gp120 on intact HIV virions (strain MN) (HIV strain MN) (UniProt P05877); assay: MAb (0.8 µg/ml) with intact HIV virions, complexes captured on Protein G, p24 ELISA
[3] = biological target: gp120 on intact HIV virions (strain MN) (HIV strain MN) (UniProt P05877); assay: MAb (45 µg/ml) with intact HIV virions, complexes captured on Protein G, p24 ELISA

For MAb 2G12 (antibody), the A490 (MAb binding of HIV in the absence of competitors) [1] was 0.246 A490.
With MAb 447-52D (antibody) the A490 (MAb binding of HIV in the absence of competitors) [2] was 0.291 A490.
MAb clone b12 (antibody) gave an A490 (MAb binding of HIV in the absence of competitors) [3] of 0.176 A490.
